According to patent US20100129294:

Key:
[1] = target: transthyretin (TTR) fibrils, P02766
[2] = target: Aβ40 fibrils formed from a synthetic Aβ40 peptide
[3] = target: β2-microglobulin (β2-M) fibrils, P61769
[4] = target: T1, insulin fibrils formed from purified bovine insulin, P01317
T1 chain: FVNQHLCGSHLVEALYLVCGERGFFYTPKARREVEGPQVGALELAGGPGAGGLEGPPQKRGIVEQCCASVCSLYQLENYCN

β2-microglobulin (β2-M) fibrils, P61769, sequence (P61769 21-119): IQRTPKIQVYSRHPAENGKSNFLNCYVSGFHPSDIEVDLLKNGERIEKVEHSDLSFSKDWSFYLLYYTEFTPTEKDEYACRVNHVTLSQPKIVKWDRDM

B1: nattokinase (protein)
chain: AQSVPYGISQIKAPALHSQGYTGSNVKVAVIDSGIDSSHPDLNVRGGASFVPSETNPYQDGSSHGTHVAGTIAALNNSIGVLGVAPSASLYAVKVLDSTGSGQYSWIINGIEWAISNNMDVINMSLGGPTGSTALKTVVDKAVSSGIVVAAAAGNEGSSGSTSTVGYPAKYPSTIAVGAVNSSNQRASFSSVGSELDVMAPGVSIQSTLPGGTYGAYNGTSMATPHVAGAAALILSKHPTWTNAQVRDRLESTATYLGNSFYYGKGLINVQAAAQ
- degradation of TTR fibrils at pH 7.4 and 37 C, by ThT fluorescence emission at 487 nm [1]: TTR fibrils were almost completely degraded by nattokinase in one hour
- loss of negative ellipticity at 218 nm in CD spectra after 1 hr of digestion (40 C, pH 7) [2]: nattokinase degraded all three fibrils
- degradation of β2-M fibrils at pH 7.4 and 37 C, by ThT fluorescence emission at 487 nm [3]: As for β2-M fibrils, it was degraded near completion in two hours
- degradation of insulin fibrils at pH 5, 40 C, by CD spectroscopy [4]: At pH 5, nattokinase did not show any activity
- degradation of insulin fibrils at pH 5-10, 40 C, by CD spectroscopy [4]: the nattokinase activity increased gradually with increasing pH and reached a maximal activity at pH 10 in the range tested
- loss of negative ellipticity at 218 nm in CD spectra after 1 hr of digestion (40 C, pH 7) [4]: nattokinase degraded all three fibrils
